The record followed here is publication PMC8106670.

Assay [1] concerns the target ^HisBamA_(N427C) (E. coli) (UniProt P0A940). Nature of the assay: cross-linking.
Assay [2] has as its target ^HisBamA_(T809C) (E. coli) (UniProt P0A940). The assay is described as follows: cross-linking.

For “^MBP−76EspP_(T984C) (from UniProt Q7BSW5 948-1300)”, the percent disulfide-bonded in assay [1] was 40%; in assay [2], 50%.
